Measurements: US20260217797A1
Read-outs that look alike come from different tables or passages of the source.

Tests used:
[1] = biological target: SARS-CoV-2 wild type spike protein (on reporter virus particles) (SARS-CoV-2) (UniProt P0DTC2); assay: cell-based or functional assay
[2] = biological target: SARS-CoV-1 spike protein (SARS-CoV-1) (UniProt P59594); assay: cell-based or functional assay
[3] = biological target: Bat coronavirus WIV16 spike protein (Bat coronavirus WIV16); assay: cell-based or functional assay
[4] = biological target: SARS-CoV-2 wild type spike protein (on reporter virus particles) (SARS-CoV-2) (UniProt P0DTC2); assay: cell-based or functional assay; remark: listed apart in the source
[5] = biological target: SARS-CoV-2 WT RBD (SARS-CoV-2) (UniProt P0DTC2); assay: Octet BLI single point, monovalent

S309 (antibody)
PsV neutralization IC50 [1]: 9 ng/mL
PsV neutralization IC90 [1]: 0.051 µg/mL
PsV neutralization IC50 [2]: 0.01 µg/mL
PsV neutralization IC90 [2]: 0.043 µg/mL
PsV neutralization IC50 [3]: 0.016 µg/mL
PsV neutralization IC90 [3]: 0.305 µg/mL
WT PsV IC50 [4]: 6560 pM

RGN10933 (antibody)
PsV neutralization IC50 [1]: 2 ng/mL
PsV neutralization IC90 [1]: 0.024 µg/mL
Kd [5]: 3.62 nM
PSV IC50 [4]: 28 µg/L
PsV neutralization IC50 [4]: 6.7 ng/mL
PsV neutralization IC90 [4]: 0.081 µg/mL
SARS2 IC50 [4]: 22 pM
WT PsV IC50 [4]: 185 pM

RGN10987 (antibody)
PsV neutralization IC50 [1]: 7 ng/mL
PsV neutralization IC90 [1]: 0.078 µg/mL
Kd [5]: 9.13 nM
PSV IC50 [4]: 31 µg/L
WT PsV IC50 [4]: 292 pM
